Experimental findings from the nanobody polyreactivity screen of Harvey et al. (2022) are described below.

This data set in a line: yeast display, Sf9 membrane polyspecificity reagent, FACS + sequencing; frameworks hold sequencing errors. The gist of the method: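 Nanobodies came from a synthetic yeast display library in Saccharomyces cerevisiae BJ5465, induced with galactose for 36–48 hours and stained for 1 hour at 4 °C with 10% biotinylated, detergent-solubilized Sf9 membrane reagent. Cells were enriched on streptavidin microbeads and then FACS-sorted, with low and high (top ~1%) gates set on anti-HA fluorescence for expression and streptavidin fluorescence for reagent binding. Each polyreactivity label reflects the gate a clone came from. Genes were amplified by colony PCR, sequenced by MiSeq 2 × 250 and filtered by CDR length.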
“QVQLVESGGGLVQAGGSLRLSCAASGSIFLNYAMGWYRQAPGNERELVAGISNGGSTNYADSVKGRFTISRDNAKNTVYLQMNSLKPEDTAVYYCARPAYKSRGKRFDYLGQGTQVTVSS”: the “polyreactivity (PSR sort gate)” value is on record as “low polyreactivity”.

In the case of “QVQLVESGGGLVQAGGSLRLSCAASGSIFLPYAMGWYRQAPGKEREFVAAIRWSTGRTFYADSVKGRFTISRDNAKNTVYLQMNSLKPEDTAVYYCAAVWPDVRGYDYWGQGTQVTVSS”, the “polyreactivity (PSR sort gate)” value is reported as “high polyreactivity”.

As to “QVQLVESGGGLVQAGGSLRLSCAASGSIFLRYAMGWYRQAPGKERELVAAITSSGGSTYYADSVKGRFTISRDNAKNTLYLQMNSLKPEDTAVYYCNRYSYLFPYYWKYDYWGQGTQVTVSS”, the “polyreactivity (PSR sort gate)” value is reported as “high polyreactivity”.

For “QVQLVESGGGLVQAGGSLRLSCAASGSIFLSNAMGWYRQAPGKERELVAAISRRGASTYYADSVKGRFTISRDNAKNTVYLQMNSLKPEDTAVYYCAARSYSAYGYNYWGQGTQVTVSS”, the “polyreactivity (PSR sort gate)” value is “high polyreactivity”.

In the case of “QVQLVESGGGLVQAGGSLRLSCAASGSIFLSNAMVWYRQAPGKERDLVADIDWTGGDTYYADSVKGRFTISRDNAKNTVYLQMNSLKPEDTAVYYCAADYGSRNLLTEYGYWGQGTQVTVSS”, the “polyreactivity (PSR sort gate)” value was “low polyreactivity”.

On to “QVQLVESGGGLVQAGGSLRLSCAASGSIFLSNMGWYRQAPGKERELVAAISRNGGSTYYADSVKGRFTISRDNAKYSVYLQMNSLKPEDTAVYYCAVQRYWGQGTQVTVSS”, for which the “polyreactivity (PSR sort gate)” value was “high polyreactivity”.

With “QVQLVESGGGLVQAGGSLRLSCAASGSIFLTYAMGWYRQAPGKERELVAAITDSDGSTSYADSVKGRFTISRDNAKNTVYLQMNSLKPEDTAVYYCAKDFPGRRPPKDPSAFYYWGQGTQVTVSS”, the “polyreactivity (PSR sort gate)” value is given as “low polyreactivity”.

As for “QVQLVESGGGLVQAGGSLRLSCAASGSIFLVYAMGWYRQAPGKERELVAVITKSGGSTYYADSVKGRFTISRDNAKNTVYLQMNSLKPEDTAVYYCAARRRGARHDYWGQGTQVTVSS”, the “polyreactivity (PSR sort gate)” value is listed as “high polyreactivity”.

Turning to “QVQLVESGGGLVQAGGSLRLSCAASGSIFLWNAMGWYRQAPGKEREFVASITSRGGSTYYADSVKGRFTISRDNAKNTVYLQMNSLKPEDTAVYYCAAVRSKYWYYQGGYSSYGYWGQGTQVTVSS”, the “polyreactivity (PSR sort gate)” value is recorded as “high polyreactivity”.

For “QVQLVESGGGLVQAGGSLRLSCAASGSIFLWNAMGWYRQAPGKERELVAAISSGTSTNYADSVKGRFTISRDNANNTVYLQMNSLKPEDTAVYYCAARGRKNQRRYGYWGQGTQVTVSS”, the “polyreactivity (PSR sort gate)” value was “low polyreactivity”.

Turning to “QVQLVESGGGLVQAGGSLRLSCAASGSIFLYNAMGWYRQAPGKERELVAAISKSGGSTYYADSVKGRFTISRDNAKNTVYLQMNSLIPEDTAVYYCAAGYCRRIRYGSEYDYWGQGTQVTVSS”, the “polyreactivity (PSR sort gate)” value is “low polyreactivity”.

“QVQLVESGGGLVQAGGSLRLSCAASGSIFLYNAMGWYRQAPGKERELVATITYIGGRTYYADSVKGRFTISRDNAKNTVYLQMNSLKPEDTAVYYCAAEYYVISSPSFYEYDYWGQGTQVTVSS”: the “polyreactivity (PSR sort gate)” value is reported as “low polyreactivity”.

Regarding “QVQLVESGGGLVQAGGSLRLSCAASGSIFNANAMGWYRQAPGKERELVARITRGGRTNYADSVKGRFTISLDNAKNSVYLQMNSLKPEDTAVYYCAAVYYVGFPHKYDYWGQGTQVTVSS”, the “polyreactivity (PSR sort gate)” value is on record as “low polyreactivity”.

As to “QVQLVESGGGLVQAGGSLRLSCAASGSIFNAYAMGWYRQAPGKERELVAAISKRTSYADSVKGRFTISRDNAKNTVYLQMNSLKPEDTAVYYCANEVDEPDGYEYDYWGQGTQVTVSS”, the “polyreactivity (PSR sort gate)” value is recorded as “low polyreactivity”.

With “QVQLVESGGGLVQAGGSLRLSCAASGSIFNGYDMGWYRQAPGKERELVAAISLSGDSTYYADSVKGRFTISRDNAKNTVYLQMNSLKPEDTAVYYCAAADYFRSYWGQGTQVTVSS”, the “polyreactivity (PSR sort gate)” value is “low polyreactivity”.

Regarding “QVQLVESGGGLVQAGGSLRLSCAASGSIFNGYVMGWYRQAPGKERELVASINRGGTTNYADSVKGRFTISRDNAKNTVYFQMNSLKPEDTAVYYCAVDDDANSLGGYYVLFDYWGQGTQVTVSS”, the “polyreactivity (PSR sort gate)” value is on record as “low polyreactivity”.

With “QVQLVESGGGLVQAGGSLRLSCAASGSIFNKYAMGWYRQAPGKEREFVAAITQGGGRTYYADSVKGRFTISRDNAKNTVYLQMNSLKPEDTAVYYCNAAVYSRARGSYRRRYDYWGQGTQVTVSS”, the “polyreactivity (PSR sort gate)” value is “high polyreactivity”.

On to “QVQLVESGGGLVQAGGSLRLSCAASGSIFNKYAMGWYRQAPGKERELVAAISVSGTRTYYADTVKGRFTISRDNAKNTVYLQMNSLKPEDTAVYYCATKFFRTAYESWGQGTQVTVSS”, for which the “polyreactivity (PSR sort gate)” value is given as “high polyreactivity”.

Turning to “QVQLVESGGGLVQAGGSLRLSCAASGSIFNPYTMGWYRQAPGKERELVAAISASGGSTYYADSVKGRFTISRDNAKYTVYLQMNCLKPEDTAVYYCNVYRITRHSYNFGFDYWGQGTQVTVSS”, the “polyreactivity (PSR sort gate)” value is on record as “low polyreactivity”.

With “QVQLVESGGGLVQAGGSLRLSCAASGSIFNRNVMGWYRQAPGKERELVAAITWSGASTYYADSVKGRFTISRDNAKNTVYLQMNSLKPEDTAVYYCAARGPSRRRDGSDYWGQGTQVTVSS”, the “polyreactivity (PSR sort gate)” value is recorded as “high polyreactivity”.

Take “QVQLVESGGGLVQAGGSLRLSCAASGSIFNRYAMGWSRQAPGKARELVPAISRRGAGTYYADSVKGRFTISRDNAKHTVYLQMNSLKPDDTAVYYCAAAGYFPTAGSRRAYYYCGQGTQVTVSS”: the “polyreactivity (PSR sort gate)” value is “high polyreactivity”.

For the sequence “QVQLVESGGGLVQAGGSLRLSCAASGSIFNRYAMGWYRQAPGKEREFVARISKRGGGTYYADSVKGRFTISRDNAKNTVYLQMNSLKPEDTAGYYCNAGVPSAMDYWGQGTQVTVSS”, the “polyreactivity (PSR sort gate)” value was “high polyreactivity”.

As to “QVQLVESGGGLVQAGGSLRLSCAASGSIFNRYTMGWYRPAHGKQRELVAAISRGGITYYADSVKGRFTISRDNAMNTVYLQMNSLKPEDSAVYYCAADGFTRWGRYDYWGQGTQVTVSS”, the “polyreactivity (PSR sort gate)” value is on record as “high polyreactivity”.

For “QVQLVESGGGLVQAGGSLRLSCAASGSIFNRYTMGWYRQAPGKEREFVAAIRNSGSRTYYADSVKRRFTISRDNAKNTVYLQMNSLKPEDTAVYYCAADGPLNSSESYYWGQGTQVTVSS”, the “polyreactivity (PSR sort gate)” value is listed as “low polyreactivity”.

On to “QVQLVESGGGLVQAGGSLRLSCAASGSIFNSNAMGWYRQAPGKERELVAVISWSDGSTRYADSVKGRFTISRDNAKNTVYLQMNSLKPEDTAVYYCNADLVYYYRQEVDYWGQGTEVTVSS”, for which the “polyreactivity (PSR sort gate)” value is “low polyreactivity”.

Turning to “QVQLVESGGGLVQAGGSLRLSCAASGSIFNSNAMGWYRQAPGTERELDAGISNIGGSTYYADSVKGRFTISRDYAKNTVYLQMNSLKPEDTAVYFCNADRLQPNRYYYWGQGTQVTVSS”, the “polyreactivity (PSR sort gate)” value was “high polyreactivity”.

“QVQLVESGGGLVQAGGSLRLSCAASGSIFNSYAMGWYIQAPGKERELFADITSSGGSTYYADSVKGRFTISRDNAKNTVYLQMNCLKPEDTAVYYCAASSPAFYGLRYNYWGQGTQVTVSS”: the “polyreactivity (PSR sort gate)” value is recorded as “low polyreactivity”.

As to “QVQLVESGGGLVQAGGSLRLSCAASGSIFNTYAMGWYRQAPGKEREFVASISRSGGSTRYADSVKGRFTISRDNAKNTVYLQMNSLKPEDTAVYYCAARVPRGHVTYDYWGQGTQVTVSS”, the “polyreactivity (PSR sort gate)” value is given as “high polyreactivity”.

Consider “QVQLVESGGGLVQAGGSLRLSCAASGSIFNVYVMGWYRQAPGKERELVASITWTTGSTYADSVKGRFTISRDNAKNTVYLQMNSLKPEDTAVYYCNAEFPEDTSDDYWGQGTQVTVSS”, for which the “polyreactivity (PSR sort gate)” value is recorded as “low polyreactivity”.

Turning to “QVQLVESGGGLVQAGGSLRLSCAASGSIFNWYAMGWYIQAPGKERELVAAISSSGSTNYADSVKGRFTISRDNAKNTVYLQMNSLKPEDTEVYYCNADEYYLNNYNYGYWGQGTQVTVSS”, the “polyreactivity (PSR sort gate)” value is “low polyreactivity”.

Regarding “QVQLVESGGGLVQAGGSLRLSCAASGSIFNWYAMGWYRKAPGKERELVAAIRSGGNTKYADSVKGRFTISRDNAKNTVYLQMTSLKPEDTAVYYCAAGVYHRRLEYYYWGQGSQVTVSS”, the “polyreactivity (PSR sort gate)” value is on record as “low polyreactivity”.

As for “QVQLVESGGGLVQAGGSLRLSCAASGSIFNYNAMGWYRQAPGKERELVAAISSGGSTNYADSVKGRFTISRDNAKNTVYLQMNSLKPEDTAVYYCAKRGKQYRKMNYWGQGTQVTVSS”, the “polyreactivity (PSR sort gate)” value was “high polyreactivity”.

Take “QVQLVESGGGLVQAGGSLRLSCAASGSIFNYNDMGWYRQAPGKERELVAAIDSSGTSTYYADSVKGRFTISRDNAKNTVYLQMNSLKPEDTAVYYCNADSSLGFGYWGQGTQVTVSS”: the “polyreactivity (PSR sort gate)” value was “low polyreactivity”.

Consider “QVQLVESGGGLVQAGGSLRLSCAASGSIFNYYAMGWYRQAPGKERELVAAITTSGGRTYYADSVKGRFTISRDNAKNTVYLQMNSLKPEDTAVYYCAARGYGRRAYVYRYDYWGQGTQVTVSS”, for which the “polyreactivity (PSR sort gate)” value is recorded as “high polyreactivity”.

With “QVQLVESGGGLVQAGGSLRLSCAASGSIFNYYDMGWYRQAPGKERELVAAIDLTGGTTYYADSVKGRFTISRDNAKNTVYLQMNSLKPEDTAVYYCAAQYIRSSWWGYDYWGQGTQVTVSS”, the “polyreactivity (PSR sort gate)” value is listed as “low polyreactivity”.

As to “QVQLVESGGGLVQAGGSLRLSCAASGSIFPAYAMGWYRQAPGKERELVAAITFSGGRTYYADSVKGRFTISRDNAKNTVYLQMNSLKPEDTAVYYCAAYGAPSGTGAKYGYWGQGTQVTVSS”, the “polyreactivity (PSR sort gate)” value is listed as “low polyreactivity”.

For “QVQLVESGGGLVQAGGSLRLSCAASGSIFPAYAMGWYRQAPGKERELVAAITRGGRTNYADSVKGRFTISRDNAKNSVYLQMNSLKPEDTAVYYCAKAVQGKYGYWGQGTQVTVSS”, the “polyreactivity (PSR sort gate)” value is “high polyreactivity”.

With “QVQLVESGGGLVQAGGSLRLSCAASGSIFPDNAMGWYRQAPGKERELVAAISLSGGRTYYADSVKGRFTISRDNAKNTVYLQMNSLKPEDTAVYYCAAKQRPKSYGPGHYYWGQGTQVTVSS”, the “polyreactivity (PSR sort gate)” value is recorded as “high polyreactivity”.

As to “QVQLVESGGGLVQAGGSLRLSCAASGSIFPDYAMGWYRQAPGKERELVAAITWRDDSSYYADSVKGRFTISRDNAKNTVYLQMNSLKPEDTAVYYCNASALDPLYAKDDYWGQGTQVTVSS”, the “polyreactivity (PSR sort gate)” value is given as “low polyreactivity”.

For “QVQLVESGGGLVQAGGSLRLSCAASGSIFPFYAMGWYRQAPGKERELVAAISYSGGRTYYADSVKGRFTISRDNAKNTVYLQMNSLKPEDTAVYYCAVDSGQKRRDYWGQGTQVTVSS”, the “polyreactivity (PSR sort gate)” value is reported as “high polyreactivity”.

As for “QVQLVESGGGLVQAGGSLRLSCAASGSIFPGYAMGWSRPAPGKERELVAAISRDGSTNYADSVKGRFTISRDNAKITVYLQMNSLKPEDTAVYYCARRNPLGGNEHDYWGQGTQVTVSS”, the “polyreactivity (PSR sort gate)” value is reported as “low polyreactivity”.
